Article PMC3127458 (Biochemistry, 2010)
Numbering of substitutions follows the chain as printed. Names may count otherwise.

B1: AppA Q63E full-length (natural protein, Rhodobacter sphaeroides, UniProt Q53119 1-450, looked up)
chain: MQHDLEADVTMTGSDLVSCCYRSLAAPDLTLRDLLDIVETSQAHNARAQLTGALFYSQGVFFEWLEGRPAAVAEVMTHIQRDRRHSNVEILAEEPIAKRRFAGWHMQLSCSEADMRSLGLAESRQIVTVGRSLVADNTNIFSFDRIAAVRRFLSDVCAARTLAPDTPVEADTFALYALTEAQAGRSGRAKAVARLSDLLSTDPLGRLTEVEELLRAHAPTAADFARLFEACAERLTRALAEDRISRMQVTLAYSALQMALRRIHHLPDPQKSVGAVLVAGVPGHKPILEAALAAEMLRAVGWSTSVVHPESVAALAARLKTSRTSTLVVAPSLLEGTEQEADTLRFVSALRARTDLPGLSILVGGRLAQLPPSKLKDSGADAGFAHLALLPAALARVACPANADCCSMRACRMPASQCCDKRINPEFLLANVMPSVLTRISSRQDRRRSA
B2: AppA Q63L full-length (natural protein, Rhodobacter sphaeroides, UniProt Q53119 1-450, looked up)
chain: B1 chain with E63L

Molecular target: the molecule itself
Assay: SEC

Protein	stoichiometry N
B1	2
B2	2
